The values below are quoted from earlier work in PMC4407497.

One series has as its target IL-22R1 (Homo sapiens) (UniProt Q8N6P7).
The next series concerns the target IL-22BP (Homo sapiens) (UniProt Q969J5).
Sequence of UniProt Q969J5 (Q969J5 22-263): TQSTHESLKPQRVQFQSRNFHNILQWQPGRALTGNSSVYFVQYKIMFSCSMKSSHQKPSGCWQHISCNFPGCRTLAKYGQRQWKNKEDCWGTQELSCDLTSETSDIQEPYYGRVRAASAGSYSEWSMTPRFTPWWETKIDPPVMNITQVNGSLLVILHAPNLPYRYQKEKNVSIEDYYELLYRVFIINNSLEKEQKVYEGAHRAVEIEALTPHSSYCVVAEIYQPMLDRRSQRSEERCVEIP

Sequence of UniProt Q8N6P7 (Q8N6P7 16-228): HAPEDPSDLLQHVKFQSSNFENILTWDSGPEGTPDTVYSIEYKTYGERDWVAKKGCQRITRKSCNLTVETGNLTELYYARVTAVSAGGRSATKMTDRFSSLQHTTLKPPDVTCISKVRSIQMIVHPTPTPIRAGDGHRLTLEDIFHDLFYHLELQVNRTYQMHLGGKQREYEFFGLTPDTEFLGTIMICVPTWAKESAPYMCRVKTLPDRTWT

Consider IL-22 (from UniProt Q9GZX6), for which the Kd in the series with IL-22R1 (Homo sapiens) was 20 nM; in the series with IL-22BP (Homo sapiens), 0.001 nM.
